Data reported in the supplement of paper PMC5998384.

System: HeLa Kyoto
Assay: melting temperature (median over replicates), in situ; higher = more thermally stable
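Further: HeLa Kyoto cells synchronized by double thymidine or nocodazole block, proteins quantified by TMT10plex mass spectrometry, three independent biological replicates.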

Row | Substance | melting temperature (cell cycle stage: G1/S) [°C] | melting temperature (cell cycle stage: mitosis) [°C]
1 | MPGPSPGLRRALLGLWAALGLGLFGLSAVSQEPFWADLQPRVAFVERGGSLWLNCSTNCPRPERGGLETSLRRNGTQRGLRWLARQLVDIREPETQPVCFFRCARRTLQARGLIRTFQRPDRVELMPLPPWQPVGENFTLSCRVPGAGPRASLTLTLLRGAQELIRRSFAGEPPRARGAVLTATVLARREDHGANFSCRAELDLRPHGLGLFENSSAPRELRTFSLSPDAPRLAAPRLLEVGSERPVSCTLDGLFPASEARVYLALGDQNLSPDVTLEGDAFVATATATASAEQEGARQLVCNVTLGGENRETRENVTIYSFPAPLLTLSEPSVSEGQMVTVTCAAGAQALVTLEGVPAAVPGQPAQLQLNATENDDRRSFFCDATLDVDGETLIKNRSAELRVLYAPRLDDSDCPRSWTWPEGPEQTLRCEARGNPEPSVHCARSDGGAVLALGLLGPVTRALSGTYRCKAANDQGEAVKDVTLTVEYAPALDSVGCPERITWLEGTEASLSCVAHGVPPPDVICVRSGELGAVIEGLLRVAREHAGTYRCEATNPRGSAAKNVAVTVEYGPRFEEPSCPSNWTWVEGSGRLFSCEVDGKPQPSVKCVGSGGATEGVLLPLAPPDPSPRAPRIPRVLAPGIYVCNATNRHGSVAKTVVVSAESPPEMDESTCPSHQTWLEGAEASALACAARGRPSPGVRCSREGIPWPEQQRVSREDAGTYHCVATNAHGTDSRTVTVGVEYRPVVAELAASPPGGVRPGGNFTLTCRAEAWPPAQISWRAPPGALNIGLSSNNSTLSVAGAMGSHGGEYECAATNAHGRHARRITVRVAGPWLWVAVGGAAGGAALLAAGAGLAFYVQSTACKKGEYNVQEAESSGEAVCLNGAGGGAGGAAGAEGGPEAAGGAAESPAEGEVFAIQLTSA [ICAM5] | 54.5 | 
2 | FLNC |  | 55
3 | MLQQDSNDDTEDVSLFDAEEETTNRPRKAKIRHPVASFFHLFFRVSAIIVYLLCGLLSSSFITCMVTIILLLSCDFWAVKNVTGRLMVGLRWWNHIDEDGKSHWVFESRKESSQENKTVSEAESRIFWLGLIACPVLWVIFAFSALFSFRVKWLAVVIMGVVLQGANLYGYIRCKVRSRKHLTSMATSYFGKQFLRQNTGDDQTS [TVP23B] |  | 56
4 | MLRRVTVAAVCATRRKLCEAGRELAALWGIETRGRCEDSAAARPFPILAMPGRNKAKSTCSCPDLQPNGQDLGENSRVARLGADESEEEGRRGSLSNAGDPEIVKSPSDPKQYRYIKLQNGLQALLISDLSNMEGKTGNTTDDEEEEEVEEEEEDDDEDSGAEIEDDDEEGFDDEDEFDDEHDDDLDTEDNELEELEERAEARKKTTEKQSAAALCVGVGSFADPDDLPGLAHFLEHMVFMGSLKYPDENGFDAFLKKHGGSDNASTDCERTVFQFDVQRKYFKEALDRWAQFFIHPLMIRDAIDREVEAVDSEYQLARPSDANRKEMLFGSLARPGHPMGKFFWGNAETLKHEPRKNNIDTHARLREFWMRYYSSHYMTLVVQSKETLDTLEKWVTEIFSQIPNNGLPRPNFGHLTDPFDTPAFNKLYRVVPIRKIHALTITWALPPQQQHYRVKPLHYISWLVGHEGKGSILSFLRKKCWALALFGGNGETGFEQNSTYSVFSISITLTDEGYEHFYEVAYTVFQYLKMLQKLGPEKRIFEEIRKIEDNEFHYQEQTDPVEYVENMCENMQLYPLQDILTGDQLLFEYKPEVIGEALNQLVPQKANLVLLSGANEGKCDLKEKWFGTQYSIEDIENSWAELWNSNFELNPDLHLPAENKYIATDFTLKAFDCPETEYPVKIVNTPQGCLWYKKDNKFKIPKAYIRFHLISPLIQKSAANVVLFDIFVNILTHNLAEPAYEADVAQLEYKLVAGEHGLIIRVKGFNHKLPLLFQLIIDYLAEFNSTPAVFTMITEQLKKTYFNILIKPETLAKDVRLLILEYARWSMIDKYQALMDGLSLESLLSFVKEFKSQLFVEGLVQGNVTSTESMDFLKYVVDKLNFKPLEQEMPVQFQVVELPSGHHLCKVKALNKGDANSEVTVYYQSGTRSLREYTLMELLVMHMEEPCFDFLRTKQTLGYHVYPTCRNTSGILGFSVTVGTQATKYNSEVVDKKIEEFLSSFEEKIENLTEEAFNTQVTALIKLKECEDTHLGEEVDRNWNEVVTQQYLFDRLAHEIEALKSFSKSDLVNWFKAHRGPGSKMLSVHVVGYGKYELEEDGTPSSEDSNSSCEVMQLTYLPTSPLLADCIIPITDIRAFTTTLNLLPYHKIVK [NRDC] | 50.5 | 50.9
